Measurements from patent US11286304B2, “Anti-galectin-7 antibody, kit comprising the same, and uses thereof” (Academia Sinica, priority 2018, dated 2022).

B1: IL-22: immune stimulus (protein, UniProt Q9GZX6 34-179, looked up)
Interleukin-22: APISSHCRLDKSNFQQPYITNRTFMLAKEASLADNNTDVRLIGEKLFHGVSMSERCYLMKQVLNFTLEEVLFPQSDRFQPYMQEVVPFLARLSNRLSTCHIEGDDLHIQRNVQKLKDTVKKLGESGEIKAIGELDLLFMSLRNACI
B2: IL-23: cytokine known to promote psoriatic inflammation (protein, UniProt Q9NPF7 20-189; P29460 23-328, looked up)
Interleukin-23 subunit alpha: RAVPGGSSPAWTQCQQLSQKLCTLAWSAHPLVGHMDLREEGDEETTNDVPHIQCGDGCDPQGLRDNSQFCLQRIHQGLIFYEKLLGSDIFTGEPSLLPDSPVGQLHASLLGLSQLLQPEGHHWETQQIPSLSPSQPWQRLLLRFKILRSLQAFVAVAARVFAHGAATLSP
Interleukin-12 subunit beta: IWELKKDVYVVELDWYPDAPGEMVVLTCDTPEEDGITWTLDQSSEVLGSGKTLTIQVKEFGDAGQYTCHKGGEVLSHSLLLLHKKEDGIWSTDILKDQKEPKNKTFLRCEAKNYSGRFTCWWLTTISTDLTFSVKSSRGSSDPQGVTCGAATLSAERVRGDNKEYEYSVECQEDSACPAAEESLPIEVMVDAVHKLKYENYTSSFFIRDIIKPDPPKNLQLKPLKNSRQVEVSWEYPDTWSTPHSYFSLTFCVQVQGKSKREKKDRVFTDKTSATVICRKNASISVRAQDRYYSSSWSEWASVPCS

Experiments:
Assay type in all cases: cell-based, human
IL-8 = IL-8 production by keratinocytes (ELISA); settings: HaCaT and HEKn cells subjected to immune stimuli, ELISA
Procedure: (§1) To measure the concentrations of proinflammatory cytokines secreted by keratinocytes, 2×10^4 cells were seeded in 96-well plates. Cells were incubated for 24 hours and then treated with 50 μg/ml LPS, 100 ng/ml human TNF-α, 100 or 200 ng/ml human IL-17A, 200 ng/ml human IL-22, 100 ng/ml human IL-23, or 50 ng/ml IFN-γ at 37° C. for 48 hours. In addition, the MEK inhibitor PD98059 was added along with stimulation by LPS or IL-17A (48 hours). The supernatants were then collected and analyzed by ELISAs, which were performed using a specific combination of paired antibodies (capture and detection antibodies).

IL-6 = IL-6 production by keratinocytes (ELISA); settings: HaCaT and HEKn cells subjected to immune stimuli, ELISA
Procedure: as §1

galectin-7 = assay: Galectin-7 expression in keratinocytes (real-time PCR, immunoblot); settings: HaCaT cells, treated with cytokines for 2 days, immunoblot
Procedure: Human keratinocyte cell line HaCaT was maintained at 37° C. in Dulbecco's modified Eagle's medium (DMEM) supplemented with 10% of fetal bovine serum (FBS), 2 mM glutamine, 100 U/ml penicillin and 100 μg/ml streptomycin. Short hairpin RNA (shRNA) reagents were obtained from the National RNAi Core Facility located at the Institute of Molecular Biology and Genomic Research Center, Academia Sinica, supported by the National Core Facility Program for Biotechnology Grants of NSC. Four shRNAs with clone IDs of TRCN0000057393, TRCN0000057394, TRCN0000057395, and TRCN0000057396 were used to generate stable galectin-7 knockdown HaCaT clones. HaCaT cells were infected with one of the four shRNA-expressing lentiviruses and puromycin was employed to select stable cell clones after 3 days of infection. After puromycin selection, four individual pooled clones were cultured in puromycin-free medium for 2 weeks before further analysis. […]
Cells were harvested and lysed in RIPA lysis buffer containing 1% of Triton X-100 and a protease inhibitor cocktail, and total protein concentrations were measured with a protein assay kit. Proteins in the samples of the lysates with the same amounts of total protein were separated by sodium dodecyl sulfate polyacrylamide gel electrophoresis (SDS-PAGE) and analyzed by immunoblotting. […] Protein quantification was performed by software. […]

Molecule | IL-8 production (IL-8) | IL-6 production (IL-6) | galectin-7 protein expression (galectin-7)
B1 | only IL-17A (FIG. 2), TNF-α, and LPS (data not shown) induced | only IL-17A (FIG. 2), TNF-α, and LPS (data not shown) induced | 
B2 | only IL-17A (FIG. 2), TNF-α, and LPS (data not shown) induced | only IL-17A (FIG. 2), TNF-α, and LPS (data not shown) induced | modest effects
